Test results published in US20260007748A1 (KELONIA THERAPEUTICS, published 2026).

Molecular target: T1, B cell maturation antigen (BCMA) (human, UniProt Q02223 1-184)
T1 construct: BCMA as carried by RPMI-8226 (high BCMA) and Daudi (low BCMA) tumor cells; also called TNFRSF17; tumor necrosis factor receptor superfamily member 17
T1 sequence: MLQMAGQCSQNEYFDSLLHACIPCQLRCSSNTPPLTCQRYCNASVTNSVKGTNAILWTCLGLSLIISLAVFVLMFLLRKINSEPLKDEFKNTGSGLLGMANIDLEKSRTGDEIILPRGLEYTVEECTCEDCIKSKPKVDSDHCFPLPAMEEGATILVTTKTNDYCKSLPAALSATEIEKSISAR
Assay: co-culture of transduced PBMCs with RPMI-8226 (high BCMA) or Daudi (low BCMA) cells; recognition read by IFNγ
Experimental: PBMCs transduced with recombinant lentiviral particles comprising a viral envelope expressing a mutated VSIV-G and a non-viral membrane-bound tropism polypeptide that binds CD3 and a lentiviral vector encoding an MNDU3 promoter operably linked to a polynucleotide encoding a CD8α signal peptide and an anti-BCMA CAR and a WPRE operably linked to the 3′ prime end of the polynucleotide encoding the anti-BCMA CAR (18 anti-BCMA CARs were evaluated) were co-cultured with Daudi cells (low BCMA expression) or RPMI-8226 cells (high BCMA expression) for 24 hours. After 24 hours, IFNγ levels in co-culture supernatant were measured and plotted as a function of % anti-BCMA CAR positive cells in the co-culture.
5×10⁴ PBMCs transduced with recombinant lentiviruses LV 1 to LV 19 were co-cultured with 5×10⁴ high BCMA-expressing tumor cells (RPMI-8226) or 5×10⁴ low BCMA-expressing tumor cells (Daudi) for 24 hours. Anti-BCMA CAR activity was assessed by harvesting co-culture supernatants and measuring IFNγ levels using a Meso Scale Discovery (MSD®) assay. The percentage of anti-BCMA CAR positive cells was plotted against IFNγ levels produced in co-culture. FIG. 2D.

B1: anti-BCMA CAR of recombinant lentivirus LV 3 (SEQ ID NO: 259) (other)
chain: QVQLVESGGGVVQPGRSLRLSCAASGFTFSSYGMHWVRQAPGKGLEWVAVISYEGSNKYYADSVKGRFTISRDNSKNTLYLQMNSLRAEDTAVYYCARELGDGMDVWGQGTTVTVSSGGGGSGGGGSGGGGSGGGGSEIVLTQSPATLSLSPGERATLSCRASQSVSSYLAWFQQKPGQAPRLLIYDASNRATGIPARFSGSGSGTDFTLTISSLEPEDFAVYYCQQRVDLWTFGGGTKVEIKTTTPAPRPPTPAPTIASQPLSLRPEACRPAAGGAVHTRGLDFACDIYIWAPLAGTCGVLLLSLVITLYCKRGRKKLLYIFKQPFMRPVQTTQEEDGCSCRFPEEEEGGCELRVKFSRSADAPAYQQGQNQLYNELNLGRREEYDVLDKRRGRDPEMGGKPRRKNPQEGLYNELQKDKMAEAYSEIGMKGERRRGKGHDGLYQGLSTATKDTYDALHMQALPPR
notes: Chimeric antigen receptor on transduced human PBMCs: anti-BCMA scFv, CD8α hinge and TM, CD137 costim, CD3ζ; also called LV 3.1 to LV 3.9
binding result: binds

B2: anti-BCMA CAR of recombinant lentivirus LV 11 (SEQ ID NO: 275) (other)
chain: EVQLLESGGGLVQPGGSLRLSCAASGFTFDEYTMHWFRQAPGKEREFVSAISGGGSETYYADSVKGRFTISRDNSKNTLYLQMNSLRAEDTAVYYCAAGGEEAGVGYWGQGTQVTVSSTTTPAPRPPTPAPTIASQPLSLRPEACRPAAGGAVHTRGLDFACDIYIWAPLAGTCGVLLLSLVITLYCKRGRKKLLYIFKQPFMRPVQTTQEEDGCSCRFPEEEEGGCELRVKFSRSADAPAYQQGQNQLYNELNLGRREEYDVLDKRRGRDPEMGGKPRRKNPQEGLYNELQKDKMAEAYSEIGMKGERRRGKGHDGLYQGLSTATKDTYDALHMQALPPR
notes: Chimeric antigen receptor on transduced human PBMCs: anti-BCMA VHH, CD8α hinge and TM, CD137 costim, CD3ζ
binding result: binds

B3: anti-BCMA CAR of recombinant lentivirus LV 12 (SEQ ID NO: 276) (other)
chain: EVQLLESGGGLVQPGGSLRLSCAASGFTFEDYAMSWFRQAPGKEREGVSAISGKGGSTYYADSVKGRFTISRDNSKNTLYLQMNSLRAEDTAVYYCAVLDEEAGAEGGYWGQGTQVTVSSTTTPAPRPPTPAPTIASQPLSLRPEACRPAAGGAVHTRGLDFACDIYIWAPLAGTCGVLLLSLVITLYCKRGRKKLLYIFKQPFMRPVQTTQEEDGCSCRFPEEEEGGCELRVKFSRSADAPAYQQGQNQLYNELNLGRREEYDVLDKRRGRDPEMGGKPRRKNPQEGLYNELQKDKMAEAYSEIGMKGERRRGKGHDGLYQGLSTATKDTYDALHMQALPPR
notes: as for B2
binding result: binds

B4: anti-BCMA CAR of recombinant lentivirus LV 13 (SEQ ID NO: 277) (other)
chain: EVQLLESGGGLVQPGGSLRLSCAASGFTFDRYAMSWFRQAPGKEREGVSAISTSGDSTYYADSVKGRFTISRDNSKNTLYLQMNSLRAEDTAVYYCAVLDEEAGAEGGYWGQGTQVTVSSTTTPAPRPPTPAPTIASQPLSLRPEACRPAAGGAVHTRGLDFACDIYIWAPLAGTCGVLLLSLVITLYCKRGRKKLLYIFKQPFMRPVQTTQEEDGCSCRFPEEEEGGCELRVKFSRSADAPAYQQGQNQLYNELNLGRREEYDVLDKRRGRDPEMGGKPRRKNPQEGLYNELQKDKMAEAYSEIGMKGERRRGKGHDGLYQGLSTATKDTYDALHMQALPPR
notes: Chimeric antigen receptor on transduced human PBMCs: anti-BCMA VHH, CD8α hinge and TM, CD137 costim, CD3ζ; also called LV 13.1 to LV 13.9
binding result: binds

B5: anti-BCMA CAR of recombinant lentivirus LV 10 (SEQ ID NO: 274) (other)
chain: EVQLLESGGGLVQPGGSLRLSCAASGFTFESEAMSWYRQAPGKERELVSVITSEGSTYYADSVKGRFTISRDNSKNTLYLQMNSLRAEDTAVYYCAHIEWETRLNWGQGTQVTVSSTTTPAPRPPTPAPTIASQPLSLRPEACRPAAGGAVHTRGLDFACDIYIWAPLAGTCGVLLLSLVITLYCKRGRKKLLYIFKQPFMRPVQTTQEEDGCSCRFPEEEEGGCELRVKFSRSADAPAYQQGQNQLYNELNLGRREEYDVLDKRRGRDPEMGGKPRRKNPQEGLYNELQKDKMAEAYSEIGMKGERRRGKGHDGLYQGLSTATKDTYDALHMQALPPR
notes: as for B2
binding result: binds

B6: anti-BCMA CAR of recombinant lentivirus LV 5 (SEQ ID NO: 263) (other)
chain: QVQLVESGGGLVKPGGSLRLSCAASGFTFSDYYMSWIRQAPGKGLEWVSYISSSGSTIYYADSVKGRFTISRDNAKNSLYLQMNSLRAEDTAVYYCARDQGNYGVDVWGQGTTVTVSSGGGGSGGGGSGGGGSGGGGSDIQMTQSPSTLSASVGDRVTITCRASQSISSWLAWYQQKPGKAPKLLIYEASSLESGVPSRFSGSGSGTEFTLTISSLQPDDFATYYCQQSDSHPITFGGGTKVEIKTTTPAPRPPTPAPTIASQPLSLRPEACRPAAGGAVHTRGLDFACDIYIWAPLAGTCGVLLLSLVITLYCKRGRKKLLYIFKQPFMRPVQTTQEEDGCSCRFPEEEEGGCELRVKFSRSADAPAYQQGQNQLYNELNLGRREEYDVLDKRRGRDPEMGGKPRRKNPQEGLYNELQKDKMAEAYSEIGMKGERRRGKGHDGLYQGLSTATKDTYDALHMQALPPR
notes: Chimeric antigen receptor on transduced human PBMCs: anti-BCMA scFv, CD8α hinge and TM, CD137 costim, CD3ζ; also called LV 5.1 to LV 5.9
binding result: binds

B7: anti-BCMA CAR of recombinant lentivirus LV 7 (SEQ ID NO: 268) (other)
chain: DIQMTQSPSSLSASVGDRVTITCRASQSISSYLNWYQQKPGKAPKLLIYAASSLQSGVPSRFSGSGSGTDFTLTISSLQPEDFATYYCQQAHSSPITFGGGTKVEIKGGGGSGGGGSGGGGSGGGGSEVQLLESGGGLVQPGGSLRLSCAASGFTFSNYAMSWVRQAPGKGLEWVSAISGSGGSTYYADSVKGRFTISRDNSKNTLYLQMNSLRAEDTAVYYCARPGDGYYEGVYFDYWGQGTLVTVSSTTTPAPRPPTPAPTIASQPLSLRPEACRPAAGGAVHTRGLDFACDIYIWAPLAGTCGVLLLSLVITLYCKRGRKKLLYIFKQPFMRPVQTTQEEDGCSCRFPEEEEGGCELRVKFSRSADAPAYQQGQNQLYNELNLGRREEYDVLDKRRGRDPEMGGKPRRKNPQEGLYNELQKDKMAEAYSEIGMKGERRRGKGHDGLYQGLSTATKDTYDALHMQALPPR
notes: Chimeric antigen receptor on transduced human PBMCs: anti-BCMA scFv, CD8α hinge and TM, CD137 costim, CD3ζ
binding result: binds

B8: anti-BCMA CAR of recombinant lentivirus LV 18 (SEQ ID NO: 283) (other)
chain: EVQLLESGGGLVQPGGSLRLSCAASGFTFSSEGMSWVRQAPGKERELVSAISGSGDHTYYADSVRGRFTISRDNSKNTLYLQMNSLRAEDTAVYYCNALEGGPTTAIQPGGPDYWGQGTQVTVSSTTTPAPRPPTPAPTIASQPLSLRPEACRPAAGGAVHTRGLDFACDIYIWAPLAGTCGVLLLSLVITLYCKRGRKKLLYIFKQPFMRPVQTTQEEDGCSCRFPEEEEGGCELRVKFSRSADAPAYQQGQNQLYNELNLGRREEYDVLDKRRGRDPEMGGKPRRKNPQEGLYNELQKDKMAEAYSEIGMKGERRRGKGHDGLYQGLSTATKDTYDALHMQALPPR
notes: as for B2
binding result: binds

B9: anti-BCMA CAR of recombinant lentivirus LV 8 (SEQ ID NO: 270) (other)
chain: DIQMTQSPSSLSASVGDRVTITCQASQDIANYLNWYQQKPGKAPKLLIYDASNLETGVPSRFSGSGSGTDFTFTISSLQPEDIATYYCQQHFNLPLTFGGGTKVEIKGGGGSGGGGSGGGGSGGGGSQITLKESGPTLVKPTQTLTLTCTFSGFSLSTSGVGVGWIRQPPGKALEWLALIYWNDEKRYSPSLKSRLTITKDTSKNQVVLTMTNMDPVDTAVYYCAREGSHDYKSSNWFDPWGQGTLVTVSSTTTPAPRPPTPAPTIASQPLSLRPEACRPAAGGAVHTRGLDFACDIYIWAPLAGTCGVLLLSLVITLYCKRGRKKLLYIFKQPFMRPVQTTQEEDGCSCRFPEEEEGGCELRVKFSRSADAPAYQQGQNQLYNELNLGRREEYDVLDKRRGRDPEMGGKPRRKNPQEGLYNELQKDKMAEAYSEIGMKGERRRGKGHDGLYQGLSTATKDTYDALHMQALPPR
notes: Chimeric antigen receptor on transduced human PBMCs: anti-BCMA scFv, CD8α hinge and TM, CD137 costim, CD3ζ; also called LV 8.1 to LV 8.9
binding result: binds

B10: anti-BCMA CAR of recombinant lentivirus LV 15 (SEQ ID NO: 279) (other)
chain: EVQLLESGGGLVQPGGSLRLSCAASGFTFDSYTMSWYRQAPGKERELVSAISGHGDSTYYADSVKGRFTISRDNSKNTLYLQMNSLRAEDTAVYYCTRISITTEWLAGDYWGQGTQVTVSSTTTPAPRPPTPAPTIASQPLSLRPEACRPAAGGAVHTRGLDFACDIYIWAPLAGTCGVLLLSLVITLYCKRGRKKLLYIFKQPFMRPVQTTQEEDGCSCRFPEEEEGGCELRVKFSRSADAPAYQQGQNQLYNELNLGRREEYDVLDKRRGRDPEMGGKPRRKNPQEGLYNELQKDKMAEAYSEIGMKGERRRGKGHDGLYQGLSTATKDTYDALHMQALPPR
notes: as for B2
binding result: binds

B11: anti-BCMA CAR of recombinant lentivirus LV 1 (SEQ ID NO: 256) (other)
chain: EIVLTQSPATLSLSPGERATLSCRASQSVSSYLAWYQQKPGQAPRLLIYDASNRATGIPARFSGSGSGTDFTLTISSLEPEDFAVYYCQQRVVYPITFGGGTKVEIKGGGGSGGGGSGGGGSGGGGSQITLKESGPTLVKPTQTLTLTCTFSGFSLSTSGVGVGWIRQPPGKALEWLALIYWNDEKRYSPSLKSRLTITKDTSKNQVVLTMTNMDPVDTAVYYCARDEYGGFDIWGQGTMVTVSSTTTPAPRPPTPAPTIASQPLSLRPEACRPAAGGAVHTRGLDFACDIYIWAPLAGTCGVLLLSLVITLYCKRGRKKLLYIFKQPFMRPVQTTQEEDGCSCRFPEEEEGGCELRVKFSRSADAPAYQQGQNQLYNELNLGRREEYDVLDKRRGRDPEMGGKPRRKNPQEGLYNELQKDKMAEAYSEIGMKGERRRGKGHDGLYQGLSTATKDTYDALHMQALPPR
notes: Chimeric antigen receptor on transduced human PBMCs: anti-BCMA scFv, CD8α hinge and TM, CD137 costim, CD3ζ; Encoded with a CD8α signal peptide
binding result: binds

B12: anti-BCMA CAR of recombinant lentivirus LV 2 (SEQ ID NO: 258) (other)
chain: EIVLTQSPATLSLSPGERATLSCRASQSVSSYLAWYQQKPGQAPRLLIYDASNRATGIPARFSGSGSGTDFTLTISSLEPEDFAVYYCQQRFDYPITFGGGTKVEIKGGGGSGGGGSGGGGSGGGGSQITLKESGPTLVKPTQTLTLTCTFSGFSLSTSGVGVGWIRQPPGKALEWLALIYWNDDKRYSPSLKSRLTITKDTSKNQVVLTMTNMDPVDTAVYYCARDEYGGFDIWGQGTMVTVSSTTTPAPRPPTPAPTIASQPLSLRPEACRPAAGGAVHTRGLDFACDIYIWAPLAGTCGVLLLSLVITLYCKRGRKKLLYIFKQPFMRPVQTTQEEDGCSCRFPEEEEGGCELRVKFSRSADAPAYQQGQNQLYNELNLGRREEYDVLDKRRGRDPEMGGKPRRKNPQEGLYNELQKDKMAEAYSEIGMKGERRRGKGHDGLYQGLSTATKDTYDALHMQALPPR
notes: as for B7
binding result: binds
